Paper PMC11685595 (Scientific Reports, 2024)

Columns and labels:
Assay in all cases: other fluorescence titration; intrinsic Trp fluorescence quenching, plate-based (96-well), 0-750 µM peptide added to 8 µM enzyme.Ni(II) (1:2), anaerobic preparation, 10 min at 25 °C, 50 mM Tris pH 7.5, 0.4 M NaCl; λex/λem 280/350 nm; fit to one-site specific binding with or without Hill slope
Conditions in all cases: both partners purified
[1] = biological target: T1, AtRAP2.12_(2-15) 14-mer peptide (Arabidopsis thaliana, UniProt Q9SSA8 2-15)
T1 construct: RELATED TO AP-2.12 (RAP2.12), Arabidopsis thaliana ERFVII, Cys-initiating residues 2-15; also called RAP2_(2-15); source: synthetic peptide (GL Biochem, China)

[2] = biological target: T2, AtHRE1_(2-15) 14-mer peptide (Arabidopsis thaliana, UniProt Q8H0T5 2-15)
T2 construct: HRE1, Arabidopsis thaliana ERFVII, Cys-initiating residues 2-15; source: synthetic peptide (GL Biochem, China)

[3] = biological target: T3, AtZPR2_(2-15) 14-mer peptide (Arabidopsis thaliana, UniProt Q9LZX5 2-15)
T3 construct: Little Zipper 2 (ZPR2), Arabidopsis thaliana, Cys-initiating residues 2-15; source: synthetic peptide (GL Biochem, China)

[4] = biological target: T4, AtVRN2_(2-15) 14-mer peptide (Arabidopsis thaliana, UniProt Q8W5B1 2-15)
T4 construct: Polycomb group protein Vernalisation 2 (VRN2), Arabidopsis thaliana, Cys-initiating residues 2-15; source: synthetic peptide (GL Biochem, China)

- Kd [1]: 258 ± 14.3 µM
- Kd [2]: 223 ± 10.3 µM
- Kd [3]: 692 ± 513 µM
- Kd [4]: 107 ± 29.7 µM
B1: Arabidopsis thaliana Plant Cysteine Oxidase 5, Ni(II)-substituted (AtPCO5.Ni(II)) (enzyme)
chain: not shown
notes: Plant Cysteine Oxidase 5 (AtPCO5), Arabidopsis thaliana; Active-site Fe(II) removed and replaced with Ni(II) (enzyme:metal 1:2)
